According to US20240342320A1 (GUANGZHOU GENBIONOVA MEDICAL TECHNOLOGY, published 2024):
Positions of bridges follow the written chain, without caps; N, C: chain ends. Non-standard residues stand in square brackets, D forms with d. Primed or numbered codes have the meaning given here. No end group written: not given here. PEG4′ = not defined here; NOTA′ = NOTA chelator

Assays:
Integrin α6β4 protein [1] = test: MST, dye-labelled integrin α6β4, run 1
Procedure: (§1) The affinity between these 18 polypeptides and integrin α6β4 was detected by microscale thermophoresis (MST) method as follows: [0053] 1) Integrin α6β4 protein was dissolved to 800 nM, and polypeptide was dissolved to 100 μM. [0054] 2) A RED-tris-NTA second-generation dye was diluted to 100 nM by using the MO series RED-tris-NTA protein labeling kit. [0055] 3) 100 μl α6β4 protein was mixed with 50 μl dye and incubated at room temperature for 30 min, so that the α6β4 protein binds to the dye. [0056] 4) 10 μl polypeptide was transferred into a PCR tube, and was diluted with PBST (containing 0.05% Tween 20) at a ratio of 1:1 to 16 gradients of concentrations. [0057] 5) 3 μl protein/dye mixture was transferred into a PCR tube, 3 μl of 16 different concentrations of polypeptides was respectively added and mixed well. [0058] 6) The mixture was absorbed by capillary and loaded on machine (instrument model Monolith NT.115) to assay, parameters were set as 80% LED/excitation power and medium MST power. [0059] 7) MO. Affinity Analysis software was used to calculate the equilibrium dissociation constant KD between α6β4 protein and polypeptide by KD fitting mode.

Integrin α6β4 protein [2] = test: MST, dye-labelled integrin α6β4, run 2
Procedure: as §1

Integrin α6β4 protein [3] = test: MST, dye-labelled integrin α6β4, run 3
Procedure: as §1

Integrin α6β4 protein [4] = test: MST, ratio of mean KD against …
Procedure: as §1

Integrin α6β4 protein [5] = test: MST, dye-labelled integrin α6β4, mean of 3 runs
Procedure: as §1

Integrin α6β1 = test: MST (FIG. 2B), integrin α6β1
Integrin α6β4 protein [6] = test: MST, dye-labelled integrin α6β4; unrounded mean of the table's 0.02 µM
Procedure: as §1

Integrin α6β4 protein [7] = test: MST, integrin α6β4

Chain of Integrin α6β1 (chain, as listed by the source, chain 1 of 2): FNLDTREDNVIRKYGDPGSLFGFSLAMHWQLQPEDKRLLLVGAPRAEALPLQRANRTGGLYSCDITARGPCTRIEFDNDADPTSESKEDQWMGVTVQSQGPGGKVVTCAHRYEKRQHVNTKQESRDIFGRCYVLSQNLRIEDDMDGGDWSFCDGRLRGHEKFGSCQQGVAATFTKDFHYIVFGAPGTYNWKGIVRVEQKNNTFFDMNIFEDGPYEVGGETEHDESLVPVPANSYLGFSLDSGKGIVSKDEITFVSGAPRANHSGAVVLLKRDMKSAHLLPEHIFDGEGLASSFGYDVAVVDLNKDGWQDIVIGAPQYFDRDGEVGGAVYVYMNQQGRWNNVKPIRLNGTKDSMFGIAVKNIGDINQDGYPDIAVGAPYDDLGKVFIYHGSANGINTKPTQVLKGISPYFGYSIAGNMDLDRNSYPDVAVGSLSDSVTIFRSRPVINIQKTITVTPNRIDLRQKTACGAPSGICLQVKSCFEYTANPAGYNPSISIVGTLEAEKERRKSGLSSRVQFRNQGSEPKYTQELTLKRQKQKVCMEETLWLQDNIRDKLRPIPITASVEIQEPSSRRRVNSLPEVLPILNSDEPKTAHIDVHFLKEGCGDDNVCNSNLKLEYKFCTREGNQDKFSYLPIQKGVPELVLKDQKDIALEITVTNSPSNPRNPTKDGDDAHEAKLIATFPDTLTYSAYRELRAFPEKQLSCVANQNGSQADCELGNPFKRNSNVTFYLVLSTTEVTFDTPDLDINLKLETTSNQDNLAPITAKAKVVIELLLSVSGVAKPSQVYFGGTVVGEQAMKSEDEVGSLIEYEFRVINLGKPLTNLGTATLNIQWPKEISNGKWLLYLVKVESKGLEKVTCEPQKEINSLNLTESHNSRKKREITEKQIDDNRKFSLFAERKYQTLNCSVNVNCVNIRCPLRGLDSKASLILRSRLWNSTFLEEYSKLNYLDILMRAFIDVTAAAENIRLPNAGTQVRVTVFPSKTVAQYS
Chain of Integrin α6β1 (chain, as listed by the source, chain 2 of 2): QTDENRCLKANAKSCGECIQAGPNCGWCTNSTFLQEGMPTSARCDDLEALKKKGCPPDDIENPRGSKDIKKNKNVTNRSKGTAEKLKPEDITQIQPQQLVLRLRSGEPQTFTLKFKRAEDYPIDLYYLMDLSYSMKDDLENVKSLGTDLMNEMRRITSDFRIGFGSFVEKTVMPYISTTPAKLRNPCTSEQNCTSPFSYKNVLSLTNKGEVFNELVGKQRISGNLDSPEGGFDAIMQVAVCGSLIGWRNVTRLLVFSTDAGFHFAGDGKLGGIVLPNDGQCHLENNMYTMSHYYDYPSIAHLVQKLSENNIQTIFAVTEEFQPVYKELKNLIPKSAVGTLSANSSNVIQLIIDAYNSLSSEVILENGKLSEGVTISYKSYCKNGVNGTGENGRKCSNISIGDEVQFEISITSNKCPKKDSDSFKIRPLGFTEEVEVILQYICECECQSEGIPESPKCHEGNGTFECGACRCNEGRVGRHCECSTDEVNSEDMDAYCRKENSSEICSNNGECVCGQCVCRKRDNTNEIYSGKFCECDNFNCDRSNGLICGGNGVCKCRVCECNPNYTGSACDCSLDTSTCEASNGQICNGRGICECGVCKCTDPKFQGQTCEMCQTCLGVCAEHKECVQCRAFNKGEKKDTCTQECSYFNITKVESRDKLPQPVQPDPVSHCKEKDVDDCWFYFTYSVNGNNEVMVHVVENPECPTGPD

RWYAEN (Straight-chain peptide; also called P16)
Kd (Integrin α6β4 protein [1]): 7.31 µM | Kd (Integrin α6β4 protein [2]): 6.08 µM | Kd (Integrin α6β4 protein [3]): 9.74 µM | Affinity relative to RWY (Integrin α6β4 protein [4]): 0.9 fold | Kd (Integrin α6β4 protein [5]): 7.71 µM

CRWYDEAAC (disulfide 1-9 (inferred), also called P7)
Kd (Integrin α6β4 protein [1]): 0.25 µM | Kd (Integrin α6β4 protein [2]): 0.25 µM | Kd (Integrin α6β4 protein [3]): 1.37 µM | Affinity relative to RWY (Integrin α6β4 protein [4]): 11.2 fold | Kd (Integrin α6β4 protein [5]): 0.62 µM

RWYDAN (Straight-chain peptide; also called P11)
Kd (Integrin α6β4 protein [1]): 34.6 µM | Kd (Integrin α6β4 protein [2]): 23.2 µM | Kd (Integrin α6β4 protein [3]): 35.7 µM | Affinity relative to RWY (Integrin α6β4 protein [4]): 0.22 fold | Kd (Integrin α6β4 protein [5]): 31.2 µM

B1: RWYD (peptide)
peptide: RWYD
notes: also called P15; linear quaternary polypeptide RWYD
Kd (Integrin α6β1): 0.0531 µM | Kd (Integrin α6β4 protein [1]): 0.02 µM | Kd (Integrin α6β4 protein [2]): 0.018 µM | Kd (Integrin α6β4 protein [3]): 0.026 µM | Affinity relative to RWY (Integrin α6β4 protein [4]): 327 fold | Kd (Integrin α6β4 protein [5]): 0.02 µM | Kd (Integrin α6β4 protein [6]): 0.0218 µM

CRWYDENAC (disulfide 1-9 (inferred), also called P1)
Kd (Integrin α6β4 protein [1]): 8.59 µM | Kd (Integrin α6β4 protein [2]): 6.52 µM | Kd (Integrin α6β4 protein [3]): 5.81 µM | Affinity relative to RWY (Integrin α6β4 protein [4]): 1 fold | Kd (Integrin α6β4 protein [5]): 6.97 µM

RWYDANA (Straight-chain peptide; also called P10)
Kd (Integrin α6β4 protein [1]): 62.1 µM | Kd (Integrin α6β4 protein [2]): 17.5 µM | Kd (Integrin α6β4 protein [3]): 12.4 µM | Affinity relative to RWY (Integrin α6β4 protein [4]): 0.23 fold | Kd (Integrin α6β4 protein [5]): 30.7 µM

B2: RWYD-PEG4-K-NOTA (peptide)
peptide: RWYD[PEG4′]K-{NOTA′}
notes: The unlabelled form was used in MST; also called RD
Kd (Integrin α6β4 protein [7]): 0.642 µM

CRAYDENAC (disulfide 1-9 (inferred), also called P3)
Kd (Integrin α6β4 protein [1]): 14.4 µM | Kd (Integrin α6β4 protein [2]): 11.8 µM | Kd (Integrin α6β4 protein [3]): 13.8 µM | Affinity relative to RWY (Integrin α6β4 protein [4]): 0.52 fold | Kd (Integrin α6β4 protein [5]): 13.3 µM

RWYDEN (Straight-chain peptide; also called P9)
Kd (Integrin α6β4 protein [1]): 9.69 µM | Kd (Integrin α6β4 protein [2]): 8.73 µM | Kd (Integrin α6β4 protein [3]): 13.1 µM | Affinity relative to RWY (Integrin α6β4 protein [4]): 0.66 fold | Kd (Integrin α6β4 protein [5]): 10.5 µM

CRWYDANAC (disulfide 1-9 (inferred), also called P6)
Kd (Integrin α6β4 protein [1]): 1.21 µM | Kd (Integrin α6β4 protein [2]): 7.99 µM | Kd (Integrin α6β4 protein [3]): 3.83 µM | Affinity relative to RWY (Integrin α6β4 protein [4]): 1.61 fold | Kd (Integrin α6β4 protein [5]): 4.34 µM

RWYDA (Straight-chain peptide; also called P14)
Kd (Integrin α6β4 protein [1]): 6.28 µM | Kd (Integrin α6β4 protein [2]): 4.69 µM | Kd (Integrin α6β4 protein [3]): 4.22 µM | Affinity relative to RWY (Integrin α6β4 protein [4]): 1.38 fold | Kd (Integrin α6β4 protein [5]): 5.06 µM

B3: (RWYD-PEG4)2-K-K-NOTA (peptide)
peptide: RWYD
modifications: not fully specified; each RWYD carries PEG4 at its C-terminus; two RWYD-PEG4 units are joined through lysine, followed by K-NOTA: (RWYD-PEG4)2-K-K-NOTA
notes: also called RD2; RD2 dimer
Kd (Integrin α6β4 protein [7]): 0.0648 µM | fold increase of affinity against RWYD-PEG4-K-NOTA (Integrin α6β4 protein [7]): ~10 fold

CRWYAENAC (disulfide 1-9 (inferred), also called P5)
Kd (Integrin α6β4 protein [1]): 0.36 µM | Kd (Integrin α6β4 protein [2]): 0.22 µM | Kd (Integrin α6β4 protein [3]): 0.65 µM | Affinity relative to RWY (Integrin α6β4 protein [4]): 17 fold | Kd (Integrin α6β4 protein [5]): 0.41 µM

RWYDE (Straight-chain peptide; also called P13)
Kd (Integrin α6β4 protein [1]): 14.7 µM | Kd (Integrin α6β4 protein [2]): 78.8 µM | Kd (Integrin α6β4 protein [3]): 99.6 µM | Affinity relative to RWY (Integrin α6β4 protein [4]): 0.11 fold | Kd (Integrin α6β4 protein [5]): 64.4 µM

CAWYDENAC (disulfide 1-9 (inferred), also called P2)
Kd (Integrin α6β4 protein [1]): 4.03 µM | Kd (Integrin α6β4 protein [2]): 12.1 µM | Kd (Integrin α6β4 protein [3]): 3.58 µM | Affinity relative to RWY (Integrin α6β4 protein [4]): 1.06 fold | Kd (Integrin α6β4 protein [5]): 6.58 µM

RWYDEA (Straight-chain peptide; also called P12)
Kd (Integrin α6β4 protein [1]): 5.26 µM | Kd (Integrin α6β4 protein [2]): 2.49 µM | Kd (Integrin α6β4 protein [3]): 1.74 µM | Affinity relative to RWY (Integrin α6β4 protein [4]): 2.2 fold | Kd (Integrin α6β4 protein [5]): 3.16 µM
